The text below walks through data of the Human Domainome abundance scans (Beltran et al. 2025).

± gives the uncertainty stated by the source.

B1: Peripheral plasma membrane protein CASK, residues 488 to 569; numbered along this chain, O14936 (parent)
chain: VRLVQFQKNTDEPMGITLKMNELNHCIVARIMHGGMIHRQGTLHVGDEIREINGISVANQTVEQLQKMLREMRGSITFKIVP

Variants of B1 are the subject of this series. In words: abundance fitness (aPCA) (normalised: wild type 0, dead -1); higher = more abundant; growth selection in yeast, the domain comes from the species named. The settings on record: Homo sapiens.
With VRLVQFQKNTDEPMGITLKMNELNHCIVARIMHGGMIFRQGTLHVGDEIREINGISVANQTVEQLQKMLREMRGSITFKIVP [H38F], the abundance fitness was -0.057 ± 0.045.
Consider VRLVQFQKNTDEPMGITLKMNELNHCIVARIMHGGMIHRQHTLHVGDEIREINGISVANQTVEQLQKMLREMRGSITFKIVP [G41H], for which the abundance fitness was -0.07 ± 0.043.
As for VRLVQFQKNTDEPMGITLKMNELNHCIVARIMHGGMIHRQGTLHVGDEIREINGISVANQTVEQLQKGLREMRGSITFKIVP [M68G], the figure is -0.048 ± 0.024; as for VRLVQFQKNTDEPMGITLKMRELNHCIVARIMHGGMIHRQGTLHVGDEIREINGISVANQTVEQLQKMLREMRGSITFKIVP [N21R], -0.268 ± 0.025.
As for VRLVQFQKNTDEPMGITLKMGELNHCIVARIMHGGMIHRQGTLHVGDEIREINGISVANQTVEQLQKMLREMRGSITFKIVP [N21G], the figure is -0.186 ± 0.026; as for VRLVQFQKNTDEPMGITLKMNELNHCIVARIMHGGMIHRQGTLHVGDEIREINGISVANQTVEQLQKMLREMRRSITFKIVP [G74R], -0.467 ± 0.027; as for VRLVQFQKNTDEPMGITLKMNELNHCIVARIMHGGMIHRQGTLHVGDEIREINGISVANQTVEFLQKMLREMRGSITFKIVP [Q64F], 0.007 ± 0.037.
In the case of VRLVQFQKNTDEPMGITLKMNELNHCIVARIMHGGMIHRQGTLHVGDEIREINGISVANQTVERLQKMLREMRGSITFKIVP [Q64R], the abundance fitness is -0.066 ± 0.021.
Take VRLVQFQKNTDEPMGITLKMNELNHCIVARIMHGGMIHRQGTLHVGDEIREINGISVANQTVEWLQKMLREMRGSITFKIVP [Q64W]: the abundance fitness is -0.093 ± 0.026.
On to VRLVQFQKNTDEPMGIQLKMNELNHCIVARIMHGGMIHRQGTLHVGDEIREINGISVANQTVEQLQKMLREMRGSITFKIVP [T17Q], for which the abundance fitness is -0.001 ± 0.029.
As for VRLVQFQKNTDRPMGITLKMNELNHCIVARIMHGGMIHRQGTLHVGDEIREINGISVANQTVEQLQKMLREMRGSITFKIVP [E12R], the figure is -0.143 ± 0.027; as for VRLVQFQKNTDMPMGITLKMNELNHCIVARIMHGGMIHRQGTLHVGDEIREINGISVANQTVEQLQKMLREMRGSITFKIVP [E12M], -0.016 ± 0.04; as for VRLVQFQKNTDEPMGITLKMNELNHCIVARIMHNGMIHRQGTLHVGDEIREINGISVANQTVEQLQKMLREMRGSITFKIVP [G34N], -0.016 ± 0.1.
As for VRLVQFQKNTDEPMGITLKMNELNHCIVARIMHGGMIHRQGTLHVGDIIREINGISVANQTVEQLQKMLREMRGSITFKIVP [E48I], the abundance fitness was -0.073 ± 0.073.
Regarding VRLVQFQKNTDEPMGITLKMNELNHCIVARIMHGGMIHRQGTLHVGDEIREINGTSVANQTVEQLQKMLREMRGSITFKIVP [I55T], the abundance fitness was -0.003 ± 0.028.
On to VRLVQFQKTTDEPMGITLKMNELNHCIVARIMHGGMIHRQGTLHVGDEIREINGISVANQTVEQLQKMLREMRGSITFKIVP [N9T], for which the abundance fitness stood at 0.024 ± 0.029.
As to VRLVQFQKRTDEPMGITLKMNELNHCIVARIMHGGMIHRQGTLHVGDEIREINGISVANQTVEQLQKMLREMRGSITFKIVP [N9R], the abundance fitness was -0.031 ± 0.021.
With VRLVDFQKNTDEPMGITLKMNELNHCIVARIMHGGMIHRQGTLHVGDEIREINGISVANQTVEQLQKMLREMRGSITFKIVP [Q5D], the abundance fitness was -0.038 ± 0.034.
Turning to VRLVQFQKNTDEPMGITLKMNELNHCIYARIMHGGMIHRQGTLHVGDEIREINGISVANQTVEQLQKMLREMRGSITFKIVP [V28Y], the abundance fitness is -0.779 ± 0.11.
For VRLVQFQKNTDEPMGITLKMNELNHCIEARIMHGGMIHRQGTLHVGDEIREINGISVANQTVEQLQKMLREMRGSITFKIVP [V28E], the abundance fitness was -1.01 ± 0.068.
Regarding VRLVQFQKNTDEPMGITLKMNELNHCIVARIMHGGMIHRQGTLHHGDEIREINGISVANQTVEQLQKMLREMRGSITFKIVP [V45H], the abundance fitness was found to be 0.016 ± 0.18.
For the variant VRLVQFQKNTDEPMGITLKMNELNHCIVARIMHGGMIHRQGTLHVGDEYREINGISVANQTVEQLQKMLREMRGSITFKIVP [I49Y], the abundance fitness was -0.998 ± 0.27.
Take VRLVQFQKNTDEPMGITLKMNELNHCIVARIMHGGMIHRQGTLHVGDEFREINGISVANQTVEQLQKMLREMRGSITFKIVP [I49F]: the abundance fitness was -0.721 ± 0.17.
As for VRLVQFQKNTDEPMGITLKMNELNHCIVARIQHGGMIHRQGTLHVGDEIREINGISVANQTVEQLQKMLREMRGSITFKIVP [M32Q], the figure is 0.001 ± 0.045; as for VRLVQFKKNTDEPMGITLKMNELNHCIVARIMHGGMIHRQGTLHVGDEIREINGISVANQTVEQLQKMLREMRGSITFKIVP [Q7K], -0.017 ± 0.029.
On to VRLVQFQKNTDEPMGITLKMNELNHCIVARIMHGGMTHRQGTLHVGDEIREINGISVANQTVEQLQKMLREMRGSITFKIVP [I37T], for which the abundance fitness is -0.129 ± 0.029.
As for VRLVQFQKNTDEPMGITLKMNELNHCIVARIMHGGMIHRQGTLHVGDEIREINGISVANQTVEQFQKMLREMRGSITFKIVP [L65F], the figure is -0.23 ± 0.063; as for VRLWQFQKNTDEPMGITLKMNELNHCIVARIMHGGMIHRQGTLHVGDEIREINGISVANQTVEQLQKMLREMRGSITFKIVP [V4W], -0.307 ± 0.028; as for VRLVQKQKNTDEPMGITLKMNELNHCIVARIMHGGMIHRQGTLHVGDEIREINGISVANQTVEQLQKMLREMRGSITFKIVP [F6K], -0.674 ± 0.047.
With VRLVQFQKNTDEPMGITLKMNELNHCIVARIMHGGMIHRQGTLHVGDEIREINGISVANQTVEQLQKMLREMAGSITFKIVP [R73A], the abundance fitness is -0.082 ± 0.025.
In the case of VRLVQFQKNTDEPMGITLKMNELNHCIVARIMHGGMIHRQGTLHVGDEIREINEISVANQTVEQLQKMLREMRGSITFKIVP [G54E], the abundance fitness was -0.076 ± 0.04.
On to VRLVQFQKNTDEPMGITLKMNELNHCIVARIMHGGMIHRQGTLHVGDEIREINGISVANQTVEQLEKMLREMRGSITFKIVP [Q66E], for which the abundance fitness was 0.018 ± 0.029.
As for VRLVQFQKNKDEPMGITLKMNELNHCIVARIMHGGMIHRQGTLHVGDEIREINGISVANQTVEQLQKMLREMRGSITFKIVP [T10K], the figure is -0.029 ± 0.04; as for VRLVQFQKNPDEPMGITLKMNELNHCIVARIMHGGMIHRQGTLHVGDEIREINGISVANQTVEQLQKMLREMRGSITFKIVP [T10P], -0.045 ± 0.044.
